Laboratory results from patent US11534461B2, “High affinity merkel cell polyomavirus T antigen-specific TCRS and uses thereof” (priority 2016, dated 2022).

Assays:
HLA-A*02 = HLA-A*02 (Homo sapiens, UniProt P04439, D140Y/D185E/D98H/E176V/E277Q/G131W/G231S/I119V/I121R/I166T/I218V/L300P/L318F/N151K/N90K/P208A/P217A/Q86G/Q94H/R138H/R169H/T345S); assay: HLA-A*02 binding prediction (ANN, Immune Epitope Database Analysis Resource); conditions: KLL epitope versus homologs of other polyomaviruses
From the text: Residues at positions 15, 18 and 20-22 (underlined) are highly divergent.

[1] = biological target: T1, Merkel cell polyomavirus T antigen (common to large and small T antigen) peptide on HLA-A*02:01 (human); assay: binding, other
T1 peptide: KLLEIAPNC

[2] = system: peptide loaded HLA-A*02:01 K562 cells; assay: 4 hour chromium release assay, peptide loaded targets; format: cell-based; conditions: transduced CD8+ T cells
[3] = system: HLA-A*02:01 fibroblast cell lines transduced with MCPyV LT antigen; assay: 4 hour chromium release assay, LT antigen transduced targets; format: cell-based; conditions: transduced CD8+ T cells
KLL-tetramer = KLL-tetramer staining of MCC1-transduced T cells after expansion; format: binding; conditions: CD8+ and CD4+ T cells transduced with codon-optimized TCR, expanded in culture for two weeks
[4] = system: peptide loaded HLA-A*02:01 K562 cells; assay: Effector cytokine secretion (IFNγ, IL-2, TNF) of transduced T cells; format: cell-based
From the text: (A) CD8 T cells were successfully transduced with codon-optimized MCC-specific TCR (MCC1).
The polynucleotide of one of the patient-derived class I high avidity TCR clones (MCC1) was codon optimized and transduced into CD8+ T and examined for their ability to activate […].

[5] = system: peptide loaded HLA-A*02:01 K562 cells; assay: Proliferation of transduced T cells over 72 hours; format: cell-based; conditions: transduced CD8+ T cells

Q: With KLLEIAPNC [MCPyV] as the molecule, how does the “predicted to bind to HLA-A*02 better than homologous peptides” value (HLA-A*02) read?
A: Its value is “approximately 100 ×”.

B1: MCC1H (TCR, V domains shown)
Valpha: QQQVKQSPQSLIVQKGGISIINCAYENTAFDYFPWYQQFPGKGPALLIAIRPDVSEKKEGRFTISFNKSAKQFSLHIMDSQPGDSATYFCAVPNTGNQFYFGTGTSLTVIP
Vbeta: GAGVSQSPRYKVAKRGQDVALRCDPISGHVSLFWYQQALGQGPEFLTYFQNEAQLDKSGLPSDRFFAERPEGSVSTLKIQRTQQEDSAVYLCASSLIAGLSYEQYFGPGTRLTVT
Q: Does B1 bind [1]?
A: Result: recognises

B2: MCC1: patient-derived class I high avidity MCPyV T antigen KLL-specific TCR, codon optimized and transduced into T cells (protein)
alpha: RKEVEQDPGPFNVPEGATVAFNCTYSNSASQSFFWYRQDCRKEPKLLMSVYSSGNEDGRFTAQLNRASQYISLLIRDSKLSDSATYLCVVATYSGGGADGLTFGKGTHLIIQPDIQNPDPAVYQLRDSKSSDKSVCLFTDFDSQTNVSQSKDSDVYITDKCVLDMRSMDFKSNSAVAWSNKSDFACANAFNNSIIPEDTFFPSPESSCDVKLVEKSFETDTNLNFQNLSVIGFRILLLKVAGFNLLMTLRLWSS
beta: DAGITQSPRYKITETGRQVTLMCHQTWSHSYMFWYRQDLGHGLRLIYYSAAADITDKGEVPDGYVVSRSKTENFPLTLESATRSQTSVYFCASSSGNPSTDTQYFGPGTRLTVLDLKNVFPPEVAVFEPSEAEISHTQKATLVCLATGFYPDHVELSWWVNGKEVHSGVCTDPQPLKEQPALNDSRYCLSSRLRVSATFWQNPRNHFRCQVQFYGLSENDEWTQDRAKPVTQIVSAEAWGRADCGFTSESYQQGVLSATILYEILLGKATLYAVLVSALVLMAMVKRKDSRG
Q: With B2 as the molecule, how does the “specific killing of peptide loaded targets” value [2] read?
A: The value was “specifically killed”.

Q: And the “specific killing of MCPyV LT antigen transduced targets” value [3]?
A: The value was “specifically killed”.

Q: And the “tetramer positivity after expansion” value (KLL-tetramer)?
A: Its value is “remained tetramer positive”.

Q: And the “maximum percentage of transduced cells that secrete IFNγ, IL-2 and TNF” value ([4]; saturating levels of peptide (5 μg/mL), CD4+ versus CD8+ T cells)?
A: The value was “similar”.

Q: And the “sensitivity to engage cytokine secretion” value ([4]; transduced CD4+ T cells)?
A: The value was “reduced sensitivity”.

Q: And the effector cytokine production ([4]; transduced CD8+ T cells)?
A: Its effector cytokine production is “make effector cytokines”.

Q: And the proliferation [5]?
A: Its proliferation is “readily proliferate”.
